Values quoted from earlier work, collected in article PMC8967867.

Target: NCOA3 CID (Homo sapiens) (UniProt Q9Y6Q9)
Sequence (Q9Y6Q9 1023-1093): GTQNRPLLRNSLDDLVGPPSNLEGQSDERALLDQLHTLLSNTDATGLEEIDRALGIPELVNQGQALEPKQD

CBP NCBD, sequence (Q92793 2058-2116): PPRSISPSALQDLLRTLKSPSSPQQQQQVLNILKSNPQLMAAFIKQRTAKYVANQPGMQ

CBP NCBD (from UniProt Q92793)
Kd: 200 nM
